Consider 4 substances from patent publication US20110280873A1.

Read-outs that look alike come from different tables or passages of the source.

What all share (assay): cell-based or functional assay
For assay [1], the target named is CCR2 (the MCP1 receptor) on THP-1 human monocytic cells (human) (UniProt P41597).
Assay [2] shares this target. The source holds these as a separate data set.
The target is the same in assay [3]. This is another data set of the same source.
For assay [4] the target is unchanged. This is another data set of the same source.

Sequence of UniProt P41597 (P41597 whole entry): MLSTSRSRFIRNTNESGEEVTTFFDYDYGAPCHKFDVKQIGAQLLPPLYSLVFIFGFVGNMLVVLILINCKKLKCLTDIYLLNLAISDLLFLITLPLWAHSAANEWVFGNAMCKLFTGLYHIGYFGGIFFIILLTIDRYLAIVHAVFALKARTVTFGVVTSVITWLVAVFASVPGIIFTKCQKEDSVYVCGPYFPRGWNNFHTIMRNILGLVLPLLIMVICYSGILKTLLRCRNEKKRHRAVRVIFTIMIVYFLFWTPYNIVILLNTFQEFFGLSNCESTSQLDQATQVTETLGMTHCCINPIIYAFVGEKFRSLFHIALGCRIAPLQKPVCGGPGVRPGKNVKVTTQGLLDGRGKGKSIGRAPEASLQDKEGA

With “GSD (human MCP-1, glycine-serine dipeptide, wild-type human IgG1 Fc) (from UniProt P13500 24-99; P01857 99-330) (Fc fusion)”, the EC50, agonist THP-1 cell migration in assay [1] lay in the range of 0.03 to 0.3 nM. In assay [2], this substance had a relative % of THP-1 cell migration, agonist assay, 0.03 nM of 22.8%; a relative % of THP-1 cell migration, agonist assay, 0.1 nM of 34.5%; a relative % of THP-1 cell migration, agonist assay, 0.3 nM of 41.9%; a relative % of THP-1 cell migration, agonist assay, 1 nM of 58.9%. In assay [2], this substance had a relative % of THP-1 cell migration, agonist assay, 3 nM of 53%; a relative % of THP-1 cell migration, agonist assay, 10 nM of 34.3%; a relative % of THP-1 cell migration, agonist assay, 30 nM of 23.1%.
In assay [1], “NGSD (human MCP-1 joined at its carboxy-terminus directly to wild-type human IgG1 Fc) (from UniProt P13500 24-99; P01857 99-330) (Fc fusion)” displayed an EC50, agonist THP-1 cell migration of 0.03 to 0.3 nM; a relative % of THP-1 cell migration, agonist assay, 0.03 nM of 17.7%; a relative % of THP-1 cell migration, agonist assay, 0.1 nM of 34.3%; a relative % of THP-1 cell migration, agonist assay, 0.3 nM of 35.5%. In assay [1], this substance gave a relative % of THP-1 cell migration, agonist assay, 1 nM of 36.5%; a relative % of THP-1 cell migration, agonist assay, 3 nM of 26.7%; a relative % of THP-1 cell migration, agonist assay, 10 nM of 17.5%; a relative % of THP-1 cell migration, agonist assay, 30 nM of 20.1%.
Regarding “recombinant human MCP-1 (rhMCP-1) (R & D Systems) (from UniProt P13500 24-99) (ligand)”, in assay [3], the relative % of THP-1 cell migration toward rhMCP-1 0.01 nM, medium only came to 16.2%; the relative % of THP-1 cell migration toward rhMCP-1 0.03 nM, medium only was found to be 24.2%; the relative % of THP-1 cell migration toward rhMCP-1 0.1 nM, medium only amounted to 34.8%; the relative % of THP-1 cell migration toward rhMCP-1 0.3 nM, medium only turned out to be 60.7%. Moreover, in assay [3], the relative % of THP-1 cell migration toward rhMCP-1 3 nM, medium only is 82.1% and the relative % of THP-1 cell migration toward rhMCP-1 10 nM, medium only was found to be 59.8%. In assay [1], the EC50, agonist THP-1 cell migration is 0.1 nM; the relative % of THP-1 cell migration toward rhMCP-1 0.01 nM, medium only came out at 6.44%; the relative % of THP-1 cell migration toward rhMCP-1 0.03 nM, medium only was 15%; the relative % of THP-1 cell migration toward rhMCP-1 0.1 nM, medium only came out at 32%. Moreover, in assay [1], the relative % of THP-1 cell migration toward rhMCP-1 0.3 nM, medium only is 67.5%; the relative % of THP-1 cell migration toward rhMCP-1 1 nM, medium only came to 100%; the relative % of THP-1 cell migration toward rhMCP-1 3 nM, medium only worked out at 97%; the relative % of THP-1 cell migration toward rhMCP-1 10 nM, medium only was found to be 75.5%. In assay [1], this substance showed a relative % of THP-1 cell migration, agonist assay, 0.03 nM of 26.5%; a relative % of THP-1 cell migration, agonist assay, 0.1 nM of 46.4%; a relative % of THP-1 cell migration, agonist assay, 0.3 nM of 80.2%; a relative % of THP-1 cell migration, agonist assay, 1 nM of 100%. Also, in assay [1], the relative % of THP-1 cell migration, agonist assay, 3 nM came to 70.3%; the relative % of THP-1 cell migration, agonist assay, 10 nM is 32.8%; the relative % of THP-1 cell migration, agonist assay, 30 nM was determined as 26.4%. Further, in assay [4], the relative % of THP-1 cell migration, agonist assay, 0.01 nM came out at 29.2%; the relative % of THP-1 cell migration, agonist assay, 0.03 nM was found to be 28.7%; the relative % of THP-1 cell migration, agonist assay, 0.1 nM was determined as 59.4%; the relative % of THP-1 cell migration, agonist assay, 0.3 nM was determined as 87.3%. In assay [4], this substance showed a relative % of THP-1 cell migration, agonist assay, 3 nM of 78.4% and a relative % of THP-1 cell migration, agonist assay, 10 nM of 48.4%. In assay [2], this substance registered a relative % of THP-1 cell migration, agonist assay, 0.03 nM of 28.6%; a relative % of THP-1 cell migration, agonist assay, 0.1 nM of 52.2%; a relative % of THP-1 cell migration, agonist assay, 0.3 nM of 76%; a relative % of THP-1 cell migration, agonist assay, 3 nM of 78.1%. Also, in assay [2], the relative % of THP-1 cell migration, agonist assay, 10 nM stood at 47.5% and the relative % of THP-1 cell migration, agonist assay, 30 nM is 25.3%.
In assay [3], “LPD1421 (MCP1-Ig fusion: mature human MCP1, linker GGEPKSS of SEQ ID NO: 12, human IgG1 variant hinge-CH3 with D265A) (Fc fusion)” came in with a relative % of THP-1 cell migration, antagonist assay, rhMCP-1 0 nM, LPD1421 0.01 nM of 11.8%; a relative % of THP-1 cell migration, antagonist assay, rhMCP-1 0 nM, LPD1421 0.1 nM of 9.55%; a relative % of THP-1 cell migration, antagonist assay, rhMCP-1 0 nM, LPD1421 1 nM of 12.6%; a relative % of THP-1 cell migration, antagonist assay, rhMCP-1 0.01 nM, LPD1421 0.01 nM of 10.6%. Further, in assay [3], the relative % of THP-1 cell migration, antagonist assay, rhMCP-1 0.01 nM, LPD1421 0.1 nM stood at 9.42%; the relative % of THP-1 cell migration, antagonist assay, rhMCP-1 0.01 nM, LPD1421 1 nM was 8.35%; the relative % of THP-1 cell migration, antagonist assay, rhMCP-1 0.03 nM, LPD1421 0.01 nM is 12.7%; the relative % of THP-1 cell migration, antagonist assay, rhMCP-1 0.03 nM, LPD1421 0.1 nM came out at 10.3%. Moreover, in assay [3], the relative % of THP-1 cell migration, antagonist assay, rhMCP-1 0.03 nM, LPD1421 1 nM worked out at 10.7%; the relative % of THP-1 cell migration, antagonist assay, rhMCP-1 0.1 nM, LPD1421 0.01 nM turned out to be 24.3%; the relative % of THP-1 cell migration, antagonist assay, rhMCP-1 0.1 nM, LPD1421 0.1 nM worked out at 12.1%; the relative % of THP-1 cell migration, antagonist assay, rhMCP-1 0.1 nM, LPD1421 1 nM came out at 7.25%. In assay [3], this substance gave a relative % of THP-1 cell migration, antagonist assay, rhMCP-1 0.3 nM, LPD1421 0.01 nM of 41.7%; a relative % of THP-1 cell migration, antagonist assay, rhMCP-1 0.3 nM, LPD1421 0.1 nM of 15.9%; a relative % of THP-1 cell migration, antagonist assay, rhMCP-1 0.3 nM, LPD1421 1 nM of 13.5%; a relative % of THP-1 cell migration, antagonist assay, rhMCP-1 1 nM, LPD1421 0.01 nM of 61.2%. Moreover, in assay [3], the relative % of THP-1 cell migration, antagonist assay, rhMCP-1 1 nM, LPD1421 0.1 nM was 33.7%; the relative % of THP-1 cell migration, antagonist assay, rhMCP-1 1 nM, LPD1421 1 nM was 9.44%; the relative % of THP-1 cell migration, antagonist assay, rhMCP-1 3 nM, LPD1421 0.01 nM stood at 44%; the relative % of THP-1 cell migration, antagonist assay, rhMCP-1 3 nM, LPD1421 0.1 nM was 39.2%. Moreover, in assay [3], the relative % of THP-1 cell migration, antagonist assay, rhMCP-1 3 nM, LPD1421 1 nM came out at 9.57%; the relative % of THP-1 cell migration, antagonist assay, rhMCP-1 10 nM, LPD1421 0.01 nM is 39.2%; the relative % of THP-1 cell migration, antagonist assay, rhMCP-1 10 nM, LPD1421 0.1 nM was determined as 37.9%; the relative % of THP-1 cell migration, antagonist assay, rhMCP-1 10 nM, LPD1421 1 nM amounted to 16.1%. In assay [1], the EC50, agonist THP-1 cell migration amounted to 0.03 nM; the IC50, antagonist assay of THP-1 cell migration toward rhMCP-1 was 0.01 to 0.1 nM; the potency in agonist cell migration relative to rhMCP-1 is 3 fold. Besides, in assay [4], the relative % of THP-1 cell migration, agonist assay, 0.01 nM turned out to be 27.9%; the relative % of THP-1 cell migration, agonist assay, 0.03 nM worked out at 63.8%; the relative % of THP-1 cell migration, agonist assay, 0.1 nM turned out to be 104%; the relative % of THP-1 cell migration, agonist assay, 0.3 nM came out at 86.2%. Moreover, in assay [4], the relative % of THP-1 cell migration, agonist assay, 1 nM is 59.5%; the relative % of THP-1 cell migration, agonist assay, 3 nM is 33.1%; the relative % of THP-1 cell migration, agonist assay, 10 nM was determined as 26.4%.
